Sequences and labels used below:
B1: GST–HCF-1rep1, wild type (HCF-1 residues 867–1071) [human] / Recombinant human O-linked β-N-acetylglucosamine transferase (OGT), wild type [human] (parent)
chain 1: PAVTTLVVKGTTGVTTLGTVTGTVSTSLAGAGGHSTSASLATPITTLGTIATLSSQVINPTAITVSAAQTTLTAAGGLTTPTITMQPVSQPTQVTLITAPSGVEAQPVHDLPVSILASPTTEQPTATVTIADSGQGDVQPGTVTLVCSNPPCETHETGTTNTATTTVVANLGGHPQPTQVQFVCDRQEAAASLVTSTVGQQNGSV
chain 2: MASSVGNVADSTGLAELAHREYQAGDFEAAERHCMQLWRQEPDNTGVLLLLSSIHFQCRRLDRSAHFSTLAIKQNPLLAEAYSNLGNVYKERGQLQEAIEHYRHALRLKPDFIDGYINLAAALVAAGDMEGAVQAYVSALQYNPDLYCVRSDLGNLLKALGRLEEAKACYLKAIETQPNFAVAWSNLGCVFNAQGEIWLAIHHFEKAVTLDPNFLDAYINLGNVLKEARIFDRAVAAYLRALSLSPNHAVVHGNLACVYYEQGLIDLAIDTYRRAIELQPHFPDAYCNLANALKEKGSVAEAEDCYNTALRLCPTHADSLNNLANIKREQGNIEEAVRLYRKALEVFPEFAAAHSNLASVLQQQGKLQEALMHYKEAIRISPTFADAYSNMGNTLKEMQDVQGALQCYTRAIQINPAFADAHSNLASIHKDSGNIPEAIASYRTALKLKPDFPDAYCNLAHCLQIVCDWTDYDERMKKLVSIVADQLEKNRLPSVHPHHSMLYPLSHGFRKAIAERHGNLCLDKINVLHKPPYEHPKDLKLSDGRLRVGYVSSDFGNHPTSHLMQSIPGMHNPDKFEVFCYALSPDDGTNFRVKVMAEANHFIDLSQIPCNGKAADRIHQDGIHILVNMNGYTKGARNELFALRPAPIQAMWLGYPGTSGALFMDYIITDQETSPAEVAEQYSEKLAYMPHTFFIGDHANMFPHLKKKAVIDFKSNGHIYDNRIVLNGIDLKAFLDSLPDVKIVKMKCPDGGDNADSSNTALNMPVIPMNTIAEAVIEMINRGQIQITINGFSISNGLATTQINNKAATGEEVPRTIIVTTRSQYGLPEDAIVYCNFNQLYKIDPSTLQMWANILKRVPNSVLWLLRFPAVGEPNIQQYAQNMGLPQNRIIFSPVAPKEEHVRRGQLADVCLDTPLCNGHTTGMDVLWAGTPMVTMPGETLASRVAASQLTCLGCLELIAKNRQEYEDIAVKLGTDLEYLKKVRGKVWKQRISSPLFNTKQYTMELERLYLQMWEHYAAGNKPDHMIKPVEVTESA

The experiment covers variants of B1. Kind of experiment: in vitro HCF-1rep1-OGT binding assay (OGT pull-down, quantified immunoblot). The conditions noted are these: with Recombinant human O-linked β-N-acetylglucosamine transferase (OGT), in the presence of UDP-GlcNAc, read off a plot. (A western blot detects proteins with antibodies after separation by electrophoresis.)
As to chain 1 PAVTTLVVKGTTGVTTLGTVTGTVSTSLAGAGGHSTSASLATPITTLGTIATLSSQVINPTAITVSAAQTTLTAAGGLTTPTITMQPVSQPTQVTLITAPSGVEAQPVHDLPVSILASPTTEQPTATVTIADSGQGDVQPGTVTLVCSNPPCATHETGTTNTATTTVVANLGGHPQPTQVQFVCDRQEAAASLVTSTVGQQNGSV [chain 1 E153A], the screen value (log2 fold change) was found to be 0.8.
